We go through eleven sequences from patent US20240376151A1, “STAPLED PEPTIDES AND METHODS THEREOF” (FOG PHARMACEUTICALS, INC., priority 2022, published 2024).

The assay concerns the target T1, RNF31 PUB domain (Homo sapiens, UniProt Q96EP0).
T1 construct: MBP-TEV (N, cleaved yes); made in house; host or cells: E. coli BL21 (DE3) pLysS
T1 sequence (Q96EP0 1-179): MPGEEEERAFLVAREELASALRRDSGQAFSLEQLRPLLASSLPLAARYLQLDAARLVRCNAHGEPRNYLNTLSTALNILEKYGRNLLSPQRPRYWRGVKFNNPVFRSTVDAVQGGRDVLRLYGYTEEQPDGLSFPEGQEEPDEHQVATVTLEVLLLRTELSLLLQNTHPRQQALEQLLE
In words: Phage Library Screening with NGS, RNF31 PUB domain. Type of assay: binding. The conditions noted are these: for Phage library screen NGS readout, Target Concentration 10 / Phage library screen NGS readout, Target Concentration 30 / Phage library screen NGS readout, Target Concentration 100 / Phage library screen NGS readout, Target Concentration 300 / Phage library screen NGS readout, Target Concentration 1000: RNF31 PUB domain clusters C41-C45; for Phage library screen NGS readout, BLANK: clusters C41-C45.

[1] abbreviates: target concentration 1000, first column.
[2] abbreviates: target concentration 1000, second column.

As to DPAIRECMLAALVCSTY, the “Phage library screen NGS readout, Target Concentration 10” value stood at 0; the “Phage library screen NGS readout, Target Concentration 30” value is 1; the “Phage library screen NGS readout, Target Concentration 100” value came out at 3; the “Phage library screen NGS readout, Target Concentration 300” value was determined as 10. Moreover, under setting [1], the “Phage library screen NGS readout, Target Concentration 1000” value came to 42. Also, the “Phage library screen NGS readout, Target Concentration 1000” value under setting [2] stood at 49. Further, under “column 1 of 5”, the “Phage library screen NGS readout, BLANK” value worked out at 0. Further, for the setting “column 2 of 5”, the “Phage library screen NGS readout, BLANK” value was determined as 0. The “Phage library screen NGS readout, BLANK” value (column 3 of 5) turned out to be 0. Also, for the setting “column 4 of 5”, the “Phage library screen NGS readout, BLANK” value amounted to 1. The “Phage library screen NGS readout, BLANK” value (column 5 of 5) is on record as 0.

DPAYSLCISAAVECTYY: the “Phage library screen NGS readout, Target Concentration 10” value came out at 0; the “Phage library screen NGS readout, Target Concentration 30” value turned out to be 1; the “Phage library screen NGS readout, Target Concentration 100” value is reported as 0; the “Phage library screen NGS readout, Target Concentration 300” value worked out at 2. In addition, the “Phage library screen NGS readout, Target Concentration 1000” value under setting [1] turned out to be 6. The “Phage library screen NGS readout, Target Concentration 1000” value under setting [2] amounted to 7. The “Phage library screen NGS readout, BLANK” value (column 1 of 5) is on record as 0. Further, where the note is “column 2 of 5”, the “Phage library screen NGS readout, BLANK” value was 0. Where the note is “column 3 of 5”, the “Phage library screen NGS readout, BLANK” value came out at 0. Besides, the “Phage library screen NGS readout, BLANK” value (column 4 of 5) is 0. Moreover, the “Phage library screen NGS readout, BLANK” value (column 5 of 5) came to 0.

As to DPAVVDCWDAAVQCTYY, the “Phage library screen NGS readout, Target Concentration 10” value is reported as 0; the “Phage library screen NGS readout, Target Concentration 30” value stood at 0; the “Phage library screen NGS readout, Target Concentration 100” value is given as 0; the “Phage library screen NGS readout, Target Concentration 300” value is 4. Also, the “Phage library screen NGS readout, Target Concentration 1000” value under setting [1] was determined as 15. In addition, the “Phage library screen NGS readout, Target Concentration 1000” value under setting [2] came to 11. The “Phage library screen NGS readout, BLANK” value (column 1 of 5) stood at 0. For the same sequence, under “column 2 of 5”, the “Phage library screen NGS readout, BLANK” value is 0. For the setting “column 3 of 5”, the “Phage library screen NGS readout, BLANK” value was found to be 0. The “Phage library screen NGS readout, BLANK” value (column 4 of 5) stood at 2. In addition, under “column 5 of 5”, the “Phage library screen NGS readout, BLANK” value came to 0.

DPAYRDCDWAALYCDDF: the “Phage library screen NGS readout, Target Concentration 10” value is given as 0; the “Phage library screen NGS readout, Target Concentration 30” value is 0; the “Phage library screen NGS readout, Target Concentration 100” value turned out to be 1; the “Phage library screen NGS readout, Target Concentration 300” value was determined as 2. Also, the “Phage library screen NGS readout, Target Concentration 1000” value under setting [1] was found to be 12. For the same sequence, under setting [2], the “Phage library screen NGS readout, Target Concentration 1000” value amounted to 12. Also, the “Phage library screen NGS readout, BLANK” value (column 1 of 5) is on record as 0. Besides, the “Phage library screen NGS readout, BLANK” value (column 2 of 5) amounted to 3. For the same sequence, the “Phage library screen NGS readout, BLANK” value (column 3 of 5) is 0. The “Phage library screen NGS readout, BLANK” value (column 4 of 5) is 0. Moreover, the “Phage library screen NGS readout, BLANK” value (column 5 of 5) is 1.

Regarding DPAYEDCADAAMYCDMD, the “Phage library screen NGS readout, Target Concentration 10” value came out at 0; the “Phage library screen NGS readout, Target Concentration 30” value is reported as 0; the “Phage library screen NGS readout, Target Concentration 100” value stood at 0; the “Phage library screen NGS readout, Target Concentration 300” value is recorded as 0. Also, the “Phage library screen NGS readout, Target Concentration 1000” value under setting [1] is on record as 11. In addition, the “Phage library screen NGS readout, Target Concentration 1000” value under setting [2] is 10. Besides, the “Phage library screen NGS readout, BLANK” value (column 1 of 5) is reported as 1. Further, the “Phage library screen NGS readout, BLANK” value (column 2 of 5) stood at 0. For the same sequence, the “Phage library screen NGS readout, BLANK” value (column 3 of 5) is recorded as 0. The “Phage library screen NGS readout, BLANK” value (column 4 of 5) stood at 0. Moreover, the “Phage library screen NGS readout, BLANK” value (column 5 of 5) was 0.

As for DPAYDYCLYAAQDCVWW, the “Phage library screen NGS readout, Target Concentration 10” value stood at 0; the “Phage library screen NGS readout, Target Concentration 30” value is 0; the “Phage library screen NGS readout, Target Concentration 100” value is recorded as 0; the “Phage library screen NGS readout, Target Concentration 300” value was found to be 1. For the same sequence, under setting [1], the “Phage library screen NGS readout, Target Concentration 1000” value is 6. In addition, under setting [2], the “Phage library screen NGS readout, Target Concentration 1000” value is on record as 5. The “Phage library screen NGS readout, BLANK” value (column 1 of 5) came to 0. Besides, the “Phage library screen NGS readout, BLANK” value (column 2 of 5) is on record as 0. For the same sequence, where the note is “column 3 of 5”, the “Phage library screen NGS readout, BLANK” value was 0. Besides, under “column 4 of 5”, the “Phage library screen NGS readout, BLANK” value is on record as 0. For the setting “column 5 of 5”, the “Phage library screen NGS readout, BLANK” value was 0.

Consider DPAFWACLYAAEECVVD, for which the “Phage library screen NGS readout, Target Concentration 10” value stood at 0; the “Phage library screen NGS readout, Target Concentration 30” value worked out at 0; the “Phage library screen NGS readout, Target Concentration 100” value was 0; the “Phage library screen NGS readout, Target Concentration 300” value is 3. Also, the “Phage library screen NGS readout, Target Concentration 1000” value under setting [1] was 6. Besides, under setting [2], the “Phage library screen NGS readout, Target Concentration 1000” value was found to be 9. Besides, the “Phage library screen NGS readout, BLANK” value (column 1 of 5) amounted to 1. Also, the “Phage library screen NGS readout, BLANK” value (column 2 of 5) was found to be 0. The “Phage library screen NGS readout, BLANK” value (column 3 of 5) amounted to 0. Further, where the note is “column 4 of 5”, the “Phage library screen NGS readout, BLANK” value was found to be 0. For the setting “column 5 of 5”, the “Phage library screen NGS readout, BLANK” value was 1.

Take DPADWDCMYAAQDCFED: the “Phage library screen NGS readout, Target Concentration 10” value is 0; the “Phage library screen NGS readout, Target Concentration 30” value was determined as 0; the “Phage library screen NGS readout, Target Concentration 100” value is 1; the “Phage library screen NGS readout, Target Concentration 300” value amounted to 1. In addition, the “Phage library screen NGS readout, Target Concentration 1000” value under setting [1] was found to be 11. Moreover, under setting [2], the “Phage library screen NGS readout, Target Concentration 1000” value stood at 1. For the same sequence, for the setting “column 1 of 5”, the “Phage library screen NGS readout, BLANK” value was 0. Besides, the “Phage library screen NGS readout, BLANK” value (column 2 of 5) was found to be 0. Further, the “Phage library screen NGS readout, BLANK” value (column 3 of 5) worked out at 0. For the same sequence, the “Phage library screen NGS readout, BLANK” value (column 4 of 5) came out at 0. Where the note is “column 5 of 5”, the “Phage library screen NGS readout, BLANK” value turned out to be 0.

On to DPAWTDCDWAALYCDES, for which the “Phage library screen NGS readout, Target Concentration 10” value turned out to be 0; the “Phage library screen NGS readout, Target Concentration 30” value is 0; the “Phage library screen NGS readout, Target Concentration 100” value is listed as 0; the “Phage library screen NGS readout, Target Concentration 300” value came to 0. Under setting [1], the “Phage library screen NGS readout, Target Concentration 1000” value came to 8. Moreover, under setting [2], the “Phage library screen NGS readout, Target Concentration 1000” value came to 4. In addition, under “column 1 of 5”, the “Phage library screen NGS readout, BLANK” value is 0. In addition, for the setting “column 2 of 5”, the “Phage library screen NGS readout, BLANK” value is given as 0. The “Phage library screen NGS readout, BLANK” value (column 3 of 5) is on record as 0. The “Phage library screen NGS readout, BLANK” value (column 4 of 5) was determined as 0. Also, the “Phage library screen NGS readout, BLANK” value (column 5 of 5) amounted to 0.

For DPAEDECQDAAILCSYN, the “Phage library screen NGS readout, Target Concentration 10” value was found to be 1; the “Phage library screen NGS readout, Target Concentration 30” value came out at 3; the “Phage library screen NGS readout, Target Concentration 100” value came to 0; the “Phage library screen NGS readout, Target Concentration 300” value is given as 7. In addition, the “Phage library screen NGS readout, Target Concentration 1000” value under setting [1] is listed as 19. The “Phage library screen NGS readout, Target Concentration 1000” value under setting [2] is listed as 6. Also, the “Phage library screen NGS readout, BLANK” value (column 1 of 5) turned out to be 1. For the same sequence, the “Phage library screen NGS readout, BLANK” value (column 2 of 5) was found to be 0. For the same sequence, for the setting “column 3 of 5”, the “Phage library screen NGS readout, BLANK” value is on record as 0. In addition, the “Phage library screen NGS readout, BLANK” value (column 4 of 5) came out at 0. The “Phage library screen NGS readout, BLANK” value (column 5 of 5) was found to be 1.

As to DPANFTCRVAADVCSTY, the “Phage library screen NGS readout, Target Concentration 10” value is recorded as 0; the “Phage library screen NGS readout, Target Concentration 30” value was determined as 0; the “Phage library screen NGS readout, Target Concentration 100” value worked out at 3; the “Phage library screen NGS readout, Target Concentration 300” value turned out to be 3. For the same sequence, under setting [1], the “Phage library screen NGS readout, Target Concentration 1000” value is recorded as 26. In addition, the “Phage library screen NGS readout, Target Concentration 1000” value under setting [2] came to 12. Moreover, the “Phage library screen NGS readout, BLANK” value (column 1 of 5) amounted to 0. The “Phage library screen NGS readout, BLANK” value (column 2 of 5) amounted to 0. Besides, the “Phage library screen NGS readout, BLANK” value (column 3 of 5) is 1. Besides, the “Phage library screen NGS readout, BLANK” value (column 4 of 5) is listed as 0. Also, under “column 5 of 5”, the “Phage library screen NGS readout, BLANK” value is listed as 0.
